Data from patent US20130052198A1, “ANTI-INFLAMMATORY FACTORS” (THE GENERAL HOSPITAL CORPORATION, priority 2010, published 2013).
Entries after “also recorded” stand apart in the source; their conditions may differ.

How the values were obtained:
leukocytes = test: IFN-γ production by LPS-stimulated leukocytes, ELISA; assay type: cell-based, human
Description: (§1) Leukocytes were prepared from fresh whole human blood, collected and spun in the presence of Ficoll for 30 minutes at 1500×g. The mononuclear cell layer was transferred to a new tube where it was washed once with RPMI 1640. The mononuclear cells were plated at a density of 1×10^5 per well of a 96-well plate in 50 μL of RPMI 1640 per well. MSC-CM was then immediately added to each well and allowed to incubate in the presence of the mononuclear cells for 16 hours. After incubation, 50 μL of RPMI 1640 containing 10 μg/mL of LPS was added to each well and allowed to incubate for an additional 5 hours. The resultant supernatants were collected and analyzed via ELISA for human interleukin-10 (IL-10). This procedure of incubating leukocytes with MSC-CM to determine IL-10 stimulating activity will be henceforth referred to as the “IL-10 assay”.
(§2) Preparations and use of MSC-CM, Fb-CM, LPS-stimulated MSC-CM, leukocytes were as described in Examples 1-3 and the Figures. These conditioned media preparations were added to leukocyte cultures for 16 hours, after which the culture was stimulated with LPS at 10 μg/ml. The medium from this culture was collected 24 hours after LPS stimulation of leukocytes and analyzed using an IFN-γ ELISA.

[1] = test system: human leukocytes in culture; test: Cytokine production (IL-10 or IFN-γ) in human leukocytes in culture; assay type: cell-based; settings: concentrations within five orders of magnitude of 10 μg/mL
Description: as §1, §2

[2] = test system: human peripheral blood mononuclear cells (PBMCs); test: PBMC potency assay (IL-10 assay): IL-10 secretion by LPS-stimulated PBMCs, ELISA; assay type: cell-based; settings: recombinant molecules diluted in RPMI 1640
From the text: FIG. 1: MSC conditioned medium causes peripheral blood mononuclear cells to secrete IL-10 in response to LPS, providing the basis for differential gene expression analysis to identify genes responsible for the increased activity. (a) Generalized schematic of EPS methodology. Protein products are derived from various cell types in the form of conditioned media and screened for activity in an in vitro potency assay. […] Recombinant protein products of the enriched gene list are then screened in a potency assay and the candidates with the highest activity are assessed for activity in vivo. (b) In vitro potency assay. This assay entails incubating primary human peripheral blood mononuclear cells (PBMCs) in the presence of protein products (e.g., conditioned medium from a cell) for 16 hours, followed by stimulation of the PBMCs with LPS for five hours, and measurement of IL-10 secretion into the supernatant via ELISA. (c) Time course of IL-10 expression from PBMCs when incubated with either bone marrow stromal cell conditioned medium (BMSC-CM) or unconditioned medium (DMEM) in the potency assay. (d) Comparison of potency assay activity of conditioned medium from normal human dermal fibroblasts (FB-CM), BMSCs (BMSC-CM) and BMSCs preincubated with LPS prior to conditioning (BMSCLPS-CM). * p<0.001 compared to FB-CM, ** p<0.001 compared to BMSC-CM. (e) Schematic of the differential gene expression comparison strategy to select for genes uniquely expressed at high levels in LPS stimulated MSCs (MSCLPS) compared to MSCs and fibroblasts (FBs). Analysis was then conducted on the genes identified to select for genes that were most likely to be responsible for secreted proteins. MSCLPS, LPS stimulated MSC; FB, fibroblast. […]
Leukocytes were prepared from fresh whole human blood, collected and spun in the presence of Ficoll for 30 minutes at 1500×g. […] The resultant supernatants were collected and analyzed via ELISA for human interleukin-10 (IL-10). […]

[3] = test system: colitic mice (TNBS colitis); test: TNBS colitis in mice, colon histopathology; assay type: in vivo; settings: 3 μg protein twice over 24 h; sacrifice at day 2; compared to vehicle (saline)
Description: FIG. 6: Administered MFAP5 and LGALS3BP protect mice from developing TNBS colitis. Mice were presensitized via the skin with 1% TNBS one week prior to intra-rectal administration of 3 mg of TNBS per mouse in a mixture of 50% EtOH and 50% sterile water to induce colitis. Mice were treated with 3 μg each of MFAP5, LGALS3BP and GALNT1 twice over a 24 hour period, once in conjunction with the TNBS administration and once 24 hours later. Mice were then sacrificed at day 2 and tissue collected for analysis. As expected, mice treated with vehicle (saline) developed extensive inflammation of the colon with loss of crypts and frank necrosis of the intestinal epithelium.
MFAP5, LGALS3BP and PENK all protected the colonic epithelium from the hallmark features of TNBS colitis: necrosis, inflammatory infiltrate and loss of crypts. Especially at the microscopic level, the tissue of the MFAP5, LGALS3BP and PENK treated animals looked mostly normal with minor foci of inflammation and edema.

[4] = test system: BALB/cJ mice challenged with a sub-lethal dose of LPS; test: In vivo LPS assay, sub-lethal LPS model: serum cytokines and lung histology
Description: (§3) FIG. 8: In vivo hit screen and survival study. (a) Schematic of the in vivo LPS assay. Proteins were administered intraperitoneal (IP) at the concentration that elicited the strongest effect in vitro, followed by IP administration of LPS in conjunction with a second dose of the proteins 16 hours later. Two days after the combined LPS and second protein dose, the mice were sacrificed and assessed for changes in serum cytokines and tissue histology. (b) Serum IL-10 levels of BALB/cJ mice subjected to the in vivo LPS assay. * p<0.001 compared to saline. (c) Serum TNF-α levels of BALB/cJ mice subjected to the in vivo LPS assay. * p<0.001 compared to saline, ** p<0.05 compared to BMSC-CM. (d) Representative micrographs of lung tissue from mice subjected to the in vivo LPS assay stained with hematoxylin and eosin. (e) Survival of mice subjected to a lethal dose of LPS i.p. (350 μg) concurrently with i.p. saline vehicle (bold dark blue line), 5 μg Anti-TNF-α antibody (thin dark blue line), 4 μg PENK (bold light blue line) or 4 μg MFAP5 (thin light blue line). Scale bar=200 μm.
All procedures were performed in accordance with the animal rights policies of the Massachusetts General Hospital Subcommittee on Research Animal Care. For the sub-lethal LPS model, eight week old female BALB/cJ mice (n≧3) (Jackson Laboratories, Bar Harbor, Me.) were administered an initial dose of either vehicle or one of the experimental therapies IP: 200 μL of saline (vehicle), or 3 μg of protein (e.g., GALNT1, LGALS3BP, MFAP5 or PENK) diluted in 200 μL of saline, or 1 mL of 1×BMSC-CM. 16 hours later, mice received a second dose of either vehicle or therapy in conjunction with a dose of 100 μg of LPS (E. coli 0111:B4; Sigma, St. Louis, Mo.) diluted in physiological saline. 48 hours later, mice were sacrificed and tissue and blood were collected for analysis. Serum was tested for the presence of IL-10 and TNF-α via ELISA and lungs, livers and kidneys of the animals were preserved for hematoxylin and eosin staining. For the lethal LPS model, eight week old female BALB/cJ mice (n≧5) were co-administered a lethal dose of LPS (350 μg LPS in 100 μL physiological saline) and either vehicle (negative control), 5 μg anti-TNF-α (positive control; R&D Systems, Minneapolis, Minn.), 4 μg MFAP5 diluted in 100 μL of physiological saline, or 4 μg of PENK diluted in 100 μL of physiological saline. Mice were monitored for survival for seven days (168 hours).

[5] = test system: BALB/cJ mice challenged with a lethal dose of LPS; test: Lethal LPS model, survival; assay type: in vivo; settings: 350 μg LPS i.p. with 4 μg protein; monitored seven days
Description: as §3
All procedures were performed in accordance with the animal rights policies of the Massachusetts General Hospital Subcommittee on Research Animal Care. […] Mice were monitored for survival for seven days (168 hours).

[6] = 3 μg protein or 1 mL 1×BMSC-CM IP, twice, 100 μg LPS, 48 h later, compared to saline

B1: HAPLN1: Hyaluronan and proteoglycan link protein 1; purified, recombinant form (protein, UniProt P10915 16-354, looked up)
Hyaluronan and proteoglycan …: DHLSDNYTLDHDRAIHIQAENGPHLLVEAEQAKVFSHRGGNVTLPCKFYRDPTAFGSGIHKIRIKWTKLTSDYLKEVDVFVSMGYHKKTYGGYQGRVFLKGGSDSDASLVITDLTLEDYGRYKCEVIEGLEDDTVVVALDLQGVVFPYFPRLGRYNLNFHEAQQACLDQDAVIASFDQLYDAWRGGLDWCNAGWLSDGSVQYPITKPREPCGGQNTVPGVRNYGFWDKDKSRYDVFCFTSNFNGRFYYLIHPTKLTYDEAVQACLNDGAQIAKVGQIFAAWKILGYDRCDAGWLADGSVRYPISRPRRRCSPTEAAVRFVGFPDKKHKLYGVYCFRAYN
For B1, the “IFN-γ production of leukocytes stimulated with LPS” value (leukocytes; 16 h incubation, LPS 10 μg/ml, medium collected 24 h after LPS) was “independently reduce IFN-γ production”, the “dose-dependency of IFN-γ production” value (leukocytes; HAPLN1 diluted in RPMI 1640) was “dose-dependency of IFN-γ production over several orders of magnitude” and the “promote IL-10 production or suppress IFN-γ production” value [1] was “either promote IL-10 production or suppress IFN-γ production”.

B2: MFAP5: Microfibrillar-associated protein 5, ECM glycoprotein; recombinant form tested (protein, UniProt Q13361 22-173, looked up)
Microfibrillar-associated …: IPLGVNSQRGDDVTQATPETFTEDPNLVNDPATDETVLAVLADIAPSTDDLASLSEKNTTAECWDEKFTCTRLYSVHRPVKQCIHQLCFTSLRRMYIVNKEICSRLVCKEHEAMKDELCRQMAGLPPRRLRRSNYFRLPPCENVDLQRPNGL
With B2 the “increase of IL-10 production compared to 10×MSC-CM” value [2] was “superior to that induced by 10×MSC-CM”, the “protection from TNBS colitis (colon histopathology)” value [3] was “protect the mice from developing acute colitis; also recorded: significant attenuation of colitis; also recorded: protected from developing extensive colonic inflammation” and the “serum IL-10 levels” value [4, 6] was “Significantly elevated”. The “serum TNF-α” value [4, 6] was “significantly suppressed”, the “lung histology (lung protection)” value ([4]; hematoxylin and eosin, sub-lethal LPS model, compared to vehicle) was “superior lung protection” and the “TNF-α suppression compared to BMSC-CM” value ([4]; serum, sub-lethal LPS model) was “superior TNF-α suppression”. The survival [5] was “significant survival benefit” and the “promote IL-10 production or suppress IFN-γ production” value [1] was “either promote IL-10 production or suppress IFN-γ production”.
